Test: VLP assembly induced by NaCl, quantified by size-exclusion chromatography
Assay type: physicochemical
Method: Improved VLP purification method. HepBc proteins were expressed using standard cell-free protein synthesis reactions as described above. The improved purification strategy first used Sephadex G25 columns to exchange the samples into a 50 mM Tris, 25 mM Imidazole, 0.1% Tween-20, pH 7.4 buffer solution. Insolubles were removed using centrifugation at 10 k×g for 15 min before loading the soluble fraction onto the Ni-NTA column. After loading, the Ni-NTA column was washed with 4 column volumes (CV) of 50 mM Tris, 25 mM Imidazole, 0.1% Tween-20, pH 7.4 and then eluted with 50 mM Tris, 250 mM Imidazole, 0.1% Tween-20, pH 7.4 (5CV total). […] Assembled VLPs were quantified and purified by applying 200 μL of the samples to 2.2 mL Sepharose 6 Fast Flow size-exclusion chromatographic resin, eluting 24×150 μL fractions. Protein concentration in each fraction was determined by measuring the radioactivity using liquid scintillation counting. […]
VLP purification method. […] Assembled VLPs were quantified and purified by applying 200 μL of the samples to 2.2 mL Sepharose 6 Fast Flow size-exclusion column, applying the assembly buffer, and collecting 24×150 […]. Protein concentration in each fraction was determined by measuring the radioactivity using liquid scintillation counting. […]

| Molecule | NaCl concentration (ionic strength) required for VLP assembly [M] |
| --- | --- |
| wild-type: Wild-type truncated Hepatitis B core protein HBc149, SEQ ID NO: 1 | 0.5 |
| HP spike transplant: HepBc with HP series of amino acid changes in the spike region; HBc(HP) is SEQ ID NO: 3 (protein) MDIDPYKEFGATVELLSFLPSDFFPSVRCLLDTAAALYRDALESPEHCSPHHTALRQAVSCWREVTDFGDWVGNNMQDQAARDLVVNYVNANIGLKIRQLLWFHISCLTFGRETVLEYLVSFGVWICTPPAYRPPNAPILSTLPETTVV | 1.5 |
